From publication PMC8294578

B1: BaSO4-adsorbing protein 1 (BSAP1) from Ornithodoros savignyi (natural protein)
chain: MDSEFPCPRKQQPAGNSECSYYCEMNGQWKLGKFQNGARCDYNAVKDGVCNEGLCYASGDSASNTQNQGGSRRQENEDQGDDEWDRK

Experiments:
[1] = target: mannan-binding lectin (MBL) (human (endogenous in human serum)) (UniProt P11226)
[2] = target: mannan-binding lectin (MBL) (human (endogenous in human serum)) (UniProt P11226); remark: listed apart in the source
[3] = target: factor V (FV) (human (endogenous in human plasma))
[4] = target: mannan binding lectin-associated serine proteases (MASPs) (human (endogenous in human serum))

UniProt P11226, sequence (P11226 21-248): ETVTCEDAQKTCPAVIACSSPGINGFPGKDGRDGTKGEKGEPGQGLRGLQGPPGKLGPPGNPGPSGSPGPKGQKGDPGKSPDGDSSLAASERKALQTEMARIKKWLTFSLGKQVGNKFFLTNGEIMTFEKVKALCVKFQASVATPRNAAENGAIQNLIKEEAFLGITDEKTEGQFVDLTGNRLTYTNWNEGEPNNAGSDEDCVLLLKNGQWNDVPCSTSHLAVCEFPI

Row | Molecule | EC50 of inhibition of lectin pathway activation in human serum (mannan-coated wells, ELISA, C4b deposition) [1] [µM] | EC50 of inhibition of MBL deposition on mannan-coated wells from human serum (ELISA, anti-MBL antibody) [2] [µM] | decrease of prothrombinase activity in the FV(a) inhibition assay (1/1000 diluted human plasma, 20 pM FXa, 100 nM peptide) [3] [% decrease] | EC50 of inhibition of lectin pathway activation in human serum (mannan-coated wells, ELISA, C4b deposition) [4] [µM]
1 | tick salivary lectin pathway inhibitor (TSLPI) from Ixodes scapularis (natural protein) | 25 | 90 |  | 
2 | D70-L104 Salp14 (from UniProt Q95WY7 91-125) (peptide) |  |  | 40 | 17
3 | B1 | 8 | 26 |  | 
